Assay results published in US20150023971A1.

How the values were obtained:
[1] = biological target: T1, SDFAKNF; test: SPOT length analysis, dot 51, HRP-S-protein detection
T1 sequence (peptide): SDFAKNF

[2] = biological target: T2, NFVQTD; test: SPOT length analysis, dot 66, anti-histidine detection
T2 sequence (peptide): NFVQTD

[3] = biological target: T3, …; test: SPOT length analysis, dot 7, anti-histidine detection
T3 sequence (peptide): RIFRSSDFAKNFV

[4] = biological target: T4, …; test: SPOT length analysis, dot 2, anti-histidine detection
T4 sequence (peptide): RIFRSSDFAKNFVQT

[5] = biological target: T5, DFAKNFV; test: SPOT length analysis, dot 52, anti-histidine detection
T5 sequence (peptide): DFAKNFV

[6] = biological target: T6, sortilin peptide … (synthetic, soluble); test: SPOT length analysis, dot 11 (peptide here cellulose-bound), HRP-S-protein detection
T6 sequence (peptide): RIFRSSDFAKNF

[7] = biological target: T3, …; test: SPOT length analysis, dot 7, HRP-S-protein detection
[8] = biological target: T7, FVQTD; test: SPOT length analysis, dot 78, anti-histidine detection
T7 sequence (peptide): FVQTD

[9] = biological target: T8, …; test: SPOT length analysis, dot 32, anti-histidine detection
T8 sequence (peptide): RSSDFAKNF

[10] = biological target: T9, FVQT; test: SPOT length analysis, dot 90, HRP-S-protein detection
T9 sequence (peptide): FVQT

[11] = biological target: T10, DFAKNF; test: SPOT length analysis, dot 62, HRP-S-protein detection
T10 sequence (peptide): DFAKNF

[12] = biological target: T11, FRSS; test: SPOT length analysis, dot 81, HRP-S-protein detection
T11 sequence (peptide): FRSS

[13] = biological target: T1, SDFAKNF; test: SPOT length analysis, dot 51, anti-histidine detection
[14] = biological target: T12, …; test: SPOT length analysis, dot 20, HRP-S-protein detection
T12 sequence (peptide): SSDFAKNFVQT

[15] = biological target: T13, SSDFA; test: SPOT length analysis, dot 71, HRP-S-protein detection
T13 sequence (peptide): SSDFA

[16] = biological target: T14, …; test: SPOT length analysis, dot 25, HRP-S-protein detection
T14 sequence (peptide): RSSDFAKNFV

[17] = biological target: T15, …; test: SPOT length analysis, dot 34, anti-histidine detection
T15 sequence (peptide): SDFAKNFVQ

[18] = biological target: T16, IFRSSD; test: SPOT length analysis, dot 57, HRP-S-protein detection
T16 sequence (peptide): IFRSSD

[19] = biological target: T17, sortilin peptide … on SPOT membrane; test: SPOT length analysis, dot 1, anti-histidine detection
T17 sequence (peptide, C-terminus anchored to the cellulose membrane through a beta-alanine linker): RIFRSSDFAKNFVQTD

[20] = biological target: T17, sortilin peptide … on SPOT membrane; test: SPOT length analysis, dot 1, HRP-S-protein detection
[21] = biological target: T18, …; test: SPOT length analysis, dot 30, anti-histidine detection
T18 sequence (peptide): IFRSSDFAK

[22] = biological target: T19, RIFRSSD; test: SPOT length analysis, dot 46, HRP-S-protein detection
T19 sequence (peptide): RIFRSSD

[23] = biological target: T20, IFRSSDFA; test: SPOT length analysis, dot 38, HRP-S-protein detection
T20 sequence (peptide): IFRSSDFA

[24] = biological target: T21, RSSDF; test: SPOT length analysis, dot 70, HRP-S-protein detection
T21 sequence (peptide): RSSDF

[25] = biological target: T22, …; test: SPOT length analysis, dot 17, anti-histidine detection
T22 sequence (peptide): IFRSSDFAKNF

[26] = biological target: T23, SDFA; test: SPOT length analysis, dot 84, anti-histidine detection
T23 sequence (peptide): SDFA

[27] = biological target: T24, …; test: SPOT length analysis, dot 26, anti-histidine detection
T24 sequence (peptide): SSDFAKNFVQ

[28] = biological target: T25, FAKNF; test: SPOT length analysis, dot 74, HRP-S-protein detection
T25 sequence (peptide): FAKNF

[29] = biological target: T20, IFRSSDFA; test: SPOT length analysis, dot 38, anti-histidine detection
[30] = biological target: T18, …; test: SPOT length analysis, dot 30, HRP-S-protein detection
[31] = biological target: T26, …; test: SPOT length analysis, dot 6, HRP-S-protein detection
T26 sequence (peptide): FRSSDFAKNFVQTD

[32] = biological target: T27, FRSSDF; test: SPOT length analysis, dot 58, HRP-S-protein detection
T27 sequence (peptide): FRSSDF

[33] = biological target: T28, …; test: SPOT length analysis, dot 13, HRP-S-protein detection
T28 sequence (peptide): FRSSDFAKNFVQ

[34] = biological target: T29, SSDF; test: SPOT length analysis, dot 83, HRP-S-protein detection
T29 sequence (peptide): SSDF

[35] = biological target: T8, …; test: SPOT length analysis, dot 32, HRP-S-protein detection
[36] = biological target: T27, FRSSDF; test: SPOT length analysis, dot 58, anti-histidine detection
[37] = biological target: T30, FRSSD; test: SPOT length analysis, dot 69, anti-histidine detection
T30 sequence (peptide): FRSSD

[38] = biological target: T31, SSDFAK; test: SPOT length analysis, dot 60, HRP-S-protein detection
T31 sequence (peptide): SSDFAK

[39] = biological target: T32, …; test: SPOT length analysis, dot 33, anti-histidine detection
T32 sequence (peptide): SSDFAKNFV

[40] = biological target: T33, AKNFV; test: SPOT length analysis, dot 75, anti-histidine detection
T33 sequence (peptide): AKNFV

[41] = biological target: T34, sortilin peptide RIFRSSDF on SPOT membrane; test: SPOT length analysis, dot 37, HRP-S-protein detection
T34 sequence (peptide, C-terminus anchored to the cellulose membrane through a beta-alanine linker): RIFRSSDF

[42] = biological target: T35, …; test: SPOT length analysis, dot 18, HRP-S-protein detection
T35 sequence (peptide): FRSSDFAKNFV

[43] = biological target: T36, AKNFVQT; test: SPOT length analysis, dot 54, anti-histidine detection
T36 sequence (peptide): AKNFVQT

[44] = biological target: T14, …; test: SPOT length analysis, dot 25, anti-histidine detection
[45] = biological target: T37, …; test: SPOT length analysis, dot 28, anti-histidine detection
T37 sequence (peptide): DFAKNFVQTD

[46] = biological target: T38, AKNFVQTD; test: SPOT length analysis, dot 45, anti-histidine detection
T38 sequence (peptide): AKNFVQTD

[47] = biological target: T39, DFAKN; test: SPOT length analysis, dot 73, HRP-S-protein detection
T39 sequence (peptide): DFAKN

[48] = biological target: T40, RSSDFA; test: SPOT length analysis, dot 59, HRP-S-protein detection
T40 sequence (peptide): RSSDFA

B1: recombinant his-S-tagged pro-domain of human BDNF (residues Ala1-Arg110), from pET-30 Xa/LIC, E. coli (protein, not shown: small tags and cut ends)
chain: APMKEANIRGQGGLAYPGVRTHGTLESVNGPKAGSGLTSLADTFEHVIEELLDEDQKVRPNEENNKDADLYTSRVMLSSQVPLEPPLLFLLEEYKNYLDAANMSMRVRR
For B1, the BLU Sprotein [1] was 17200 BLU, the BLU His [2] was 15400 BLU and the BLU His [3] was 102000 BLU. For the same binder, the BLU His [4] was 113000 BLU, the BLU His [5] was 17300 BLU and the BLU Sprotein [6] was 166000 BLU. The BLU Sprotein [7] was 168000 BLU, the BLU His [8] was 22400 BLU and the BLU His [9] was 21100 BLU. It also gave a BLU Sprotein [10] of 13600 BLU, a BLU Sprotein [11] of 15200 BLU and a BLU Sprotein [12] of 37000 BLU. The BLU His [13] was 17200 BLU, the BLU Sprotein [14] was 18400 BLU and the BLU Sprotein [15] was 14700 BLU. It also gave a BLU Sprotein [16] of 25400 BLU, a BLU His [17] of 18400 BLU and a BLU Sprotein [18] of 18100 BLU. It also gave a BLU His [19] of 57000 BLU, a BLU Sprotein [20] of 137000 BLU and a BLU His [21] of 20800 BLU. It also gave a BLU Sprotein [22] of 21500 BLU, a BLU Sprotein [23] of 24400 BLU and a BLU Sprotein [24] of 15500 BLU. It also gave a BLU His [25] of 40700 BLU, a BLU His [26] of 14200 BLU and a BLU His [27] of 17800 BLU. It also gave a BLU Sprotein [28] of 17500 BLU, a BLU His [29] of 21400 BLU and a BLU Sprotein [30] of 25700 BLU. It also gave a BLU Sprotein [31] of 38100 BLU, a BLU Sprotein [32] of 16900 BLU and a BLU Sprotein [33] of 199000 BLU. The BLU Sprotein [34] was 14000 BLU, the BLU Sprotein [35] was 19500 BLU and the BLU His [36] was 17500 BLU. The BLU His [37] was 15600 BLU, the BLU Sprotein [38] was 15900 BLU and the BLU His [39] was 18900 BLU. For the same binder, the BLU His [40] was 17500 BLU, the BLU Sprotein [41] was 114000 BLU and the BLU Sprotein [42] was 448000 BLU. For the same binder, the BLU His [43] was 17300 BLU, the BLU His [44] was 23000 BLU and the BLU His [45] was 17400 BLU. For the same binder, the BLU His [46] was 16000 BLU, the BLU Sprotein [47] was 15600 BLU and the BLU Sprotein [48] was 15900 BLU.
